Data reported in article PMC4817256.

Molecular target: eukaryotic translation initiation factor 4E (human (endogenous in U2OS and HeLa)) (UniProt P06730)
Assay: proximity ligation

Sequence of UniProt P06730 (P06730 whole entry): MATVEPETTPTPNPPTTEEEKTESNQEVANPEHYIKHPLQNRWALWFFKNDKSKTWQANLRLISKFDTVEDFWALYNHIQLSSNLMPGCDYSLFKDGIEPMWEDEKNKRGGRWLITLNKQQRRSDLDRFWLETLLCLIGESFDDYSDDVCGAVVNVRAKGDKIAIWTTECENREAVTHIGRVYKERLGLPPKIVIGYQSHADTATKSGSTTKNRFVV

HIV-1 Gag-GFP (natural protein)
PLA dots per cell (dots per cell): 6.98
